How the values were obtained:
[1] = target: 7D8-E345K (human); assay: dynamic light scattering; 7D8 and mutants in PBS pH 7.4 up to 100 mg/mL, 25°C; linear regression of diffusion coefficient versus antibody concentration; self-association
[2] = target: 7D8-E430G (human); assay: as above

Row | interaction parameter from regression of the diffusion coefficient versus concentration [1] | interaction parameter from regression of the diffusion coefficient versus concentration [2] | Substance
1 | -0.0174 mL/g |  | 7D8-E345K (antibody)
2 |  | -0.0126 mL/g | 7D8-E430G (antibody)

Source: paper PMC4703389
